From paper PMC12365614, “Bipartite chromatin recognition by Hop1 from two diverged Holozoa” come the findings set out here.

For data set [1], the system named is S. mansoni Hop1 CBR WT (Schistosoma mansoni). The data set is described as follows: fluorescence polarization. Particulars: FP: 20 mM Tris-HCl pH 8, 100 mM Na glutamate, 5 mM MgCl2, 3% glycerol, 0.5 mM BME, 50 nM DNA, 4 C 30 min; EMSA: 20 mM Hepes pH 7, 100 mM NaCl, 100 uM ZnCl2, 10%. In general terms: Fluorescence polarisation rises when a labelled molecule tumbles more slowly, as on binding a larger partner.

The target of data set [2] is T1, P. miniata Hop1 CBR R463A (Patiria miniata, UniProt A0A913ZKG6 352-499, R463A).
T1 sequence: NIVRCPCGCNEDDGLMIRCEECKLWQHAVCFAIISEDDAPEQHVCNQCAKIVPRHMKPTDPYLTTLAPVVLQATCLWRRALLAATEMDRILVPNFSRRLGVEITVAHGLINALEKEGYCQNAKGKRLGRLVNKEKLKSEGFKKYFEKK
The data set is described as follows: fluorescence polarization; FP: 20 mM Tris-HCl pH 8, 100 mM Na glutamate, 5 mM MgCl2, 3% glycerol, 0.5 mM BME, 50 nM DNA, 4 C 30 min; EMSA: 20 mM Hepes pH 7, 100 mM NaCl, 100 uM ZnCl2, 10% glycerol, 2 mM BME, 4 C 60 min. Particulars: protein: recombinant; tags: N-terminal His6-GST (uncleaved); label: 5' 6-FAM on strand 1; blunt.

The target in data set [3] is T2, P. miniata Hop1 CBR WT (GST) (Patiria miniata, UniProt A0A913ZKG6 352-499).
T2 sequence: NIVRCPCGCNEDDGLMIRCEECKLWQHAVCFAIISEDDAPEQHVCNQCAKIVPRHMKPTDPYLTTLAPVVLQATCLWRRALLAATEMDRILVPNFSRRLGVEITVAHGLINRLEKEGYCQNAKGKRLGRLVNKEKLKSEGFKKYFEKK
Described as above. Particulars: protein: recombinant; tags: N-terminal His6-GST (uncleaved); label: 5' 6-FAM on strand 1; blunt.

Data set [4] has as its target T3, P. miniata Hop1 CBR R477A (Patiria miniata, UniProt A0A913ZKG6 352-499, R477A).
T3 sequence: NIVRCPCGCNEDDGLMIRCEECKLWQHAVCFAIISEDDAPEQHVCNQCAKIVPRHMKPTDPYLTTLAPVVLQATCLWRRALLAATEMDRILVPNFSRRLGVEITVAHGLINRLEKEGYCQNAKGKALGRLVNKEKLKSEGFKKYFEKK
The data set is described as above. The following applies: protein: recombinant; tags: N-terminal His6-GST (uncleaved); label: 5' 6-FAM on strand 1; blunt.

Broadly, the Kd is a measure of binding affinity in units of concentration. “CTTATATCTGAATAGTCAGT (double strand) [20-bp FAM duplex]” registered a Kd in data set [1] of 16 µM.

B1: 20-bp FAM duplex (dsDNA)
DNA 1: CTTATATCTGAATAGTCAGT
DNA 2: ACTGACTATTCAGATATAAG
For B1, the binding result in data set [2] and in data set [4] was “no binding” each time. The Kd in data set [3] was 16 µM.
